Source: patent publication US20090162358A1 (GlaxoSmithKline, published 2009)
“And” between values parts separate entries of the source, which are not always exact repeats. Identical values can stand only once. Values belong to the binder of their own block, whether it stands above or below them. Ends that are not written are not given here. * marks the point of attachment. Biotin = O=C1N[C@H]2[C@H](CS[C@H]2CCCCC(=O)*)N1

What was measured:
[1] = biological target: T1, biotinylated β-amyloid 1-40 (human Aβ1-40 peptide in solution, competition ELISA) (human, UniProt P05067 672-711, biotin, position not stated); assay: competition ELISA: antibody pre-incubated with biotinylated Aβ 1-40, free Aβ captured on immobilised mouse 6F6 (competitor); Exp 1
T1 construct: domain: β-amyloid (1-40)
Experimental: (§1) 6F6c and humanised antibodies H₁₁L2, H11L9, H11L10, H11L12 and H11L13 were assessed for their ability to bind Aβ1-40 peptide in solution and inhibit the interaction of human Aβ1-40 peptide with mouse 6F6 monoclonal antibody in a competition ELISA. A constant concentration of biotinylated β-amyloid 1-40 was pre-incubated with serial diluted amounts of humanised 6F6 antibody variants. The mixture including complexed and free amyloid was then added to wells containing immobilised mouse 6F6 monoclonal antibody and incubated for 15 minutes at room temperature. Plates were washed and the amount of free β-amyloid that was still available for binding the immobilised parental 6F6 monoclonal antibody was then detected using streptavidin-HRP conjugate.

[2] = biological target: T2, human β-amyloid 1-40 (human, UniProt P05067 672-711); assay: SPR Biacore T100; antibody captured on anti-human IgG, Aβ 1-40 at 1-256 nM; 1:1 model
T2 construct: domain: β-amyloid (1-40); Used in solution over captured antibody (Biacore) or coated on ELISA plates; also called human Aβ peptide (1-40); Aβ peptide (1-40)
Experimental: (§2) Anti-human IgG (Biacore BR-1008-39) was coupled to a CM5 biosensor chip by primary amine coupling. The anti-beta amyloid antibodies were captured on this surface. Beta amyloid (1-40) was then passed over at 256, 64, 16, 4 and 1 nM, with a 0 nM (ie buffer alone passed over the captured antibody surface) used for double referencing. […] The data was analysed using the 1:1 model inherent to the T100. The run was carried out at 25° C. and 37° C. using HBS-EP as the running buffer.

[3] = biological target: T2, human β-amyloid 1-40; assay: SPR Biacore T100 at 37 C; antibody captured on anti-human IgG, Aβ 1-40 at 1-256 nM
Experimental: as §2
From this panel some constructs were also assessed for binding kinetics at physiological temperature.

[4] = biological target: T1, biotinylated β-amyloid 1-40 (human …); assay: competition ELISA: antibody pre-incubated with biotinylated Aβ 1-40, free Aβ captured on immobilised mouse 6F6 (competitor); Exp 2
Experimental: as §1

[5] = biological target: T2, human β-amyloid 1-40; assay: SPR Biacore T100, 25 C; antibody captured on protein A, Aβ 1-40 at 2-256 nM; mean of three experiments
Experimental: The affinity of selected heavy and light chain combinations was determined using a Biacore T100 instrument. Three independent experiments were performed using humanised antibody immobilised via protein A surface Biacore chips and injection of β-amyloid 1-40 peptides. The chimeric molecule of 6F6 served as a reference molecule. For this Protein A was immobilised on a CM5 chip by primary amine coupling in accordance with manufactures recommendations. Anti-β-amyloid antibodies were captured on this surface and after a period of stabilisation human β-amyloid 1-40 was passed over at concentrations 256-2 nM in halving dilutions. A buffer injection over the captured antibody surface was used to double reference the data set in accordance with Biacore best practice. […] The work was carried out in HBS-EP at 25° C. Results are summarised in Table 13 as the mean of all three experiments.

[6] = biological target: T3, N-terminally truncated β-amyloid peptide lacking residues D23 to I31 (residues 32-40) (UniProt P05067 703-711, not fully specified); assay: SRU BIND biosensor, biotinylated peptides on streptavidin plate
T3 construct: domain: β-amyloid residues 32-40; Stands also for the shorter peptides of the set ('and beyond'); not shown: SGSG linker lengthened to make a 22-mer
T3 peptide (looked up): Biotin-IGLMVGGVV-NH2
Excerpt: (§3) The minimal binding epitope of the humanised monoclonal antibody H11L9 was fine mapped using SRU BIND plate reader (SRU Biosystems). Three peptide sets were generated, based on an 18 amino acid sequence for fine mapping of the epitope: a) an alanine scanning peptide set for which 10 of the residues 27-37 were replaced consecutively with an alanine residue; b) a set of N-terminally truncated peptides where one residue was removed successively from the N-terminus of the 18-mer peptide starting with residue 23 and c) a set of C-terminally truncated peptides where one residue was removed successively from the C-terminus of the 18-mer peptide starting with residue 40.
(§4) A streptavidin coated biosensor plate (SRU Biosystems) was washed with PBS and spun upside down to remove buffer and then washed with PBS, 0.1% tween 20 and 0.4% acetonitrile and spun upside down to remove residual buffer. Wells were resuspended in 100 ul of PBS, 0.1% tween 20 and 0.4% acetonitrile and read on the SRU plate reader to establish a baseline. […] The plate was then washed with PBS twice and then resuspended in 100 ul of PBS and the baseline re-measured. […] Binding of the antibodies was monitored. Plates were washed twice with PBS and resuspended in 100 ul of PBS, and the plates were re-measured and referenced back to the addition of antibody to look for weak binders that would be removed by the washing step. […]

[7] = biological target: T4, C-terminally truncated β-amyloid peptide lacking residues V40 to G33 (residues 23-32) (UniProt P05067 694-703, not fully specified); assay: as above
T4 construct: domain: β-amyloid residues 23-32; Stands also for the shorter peptides of the set ('and beyond'); not shown: SGSG linker lengthened to make a 22-mer
T4 peptide (looked up): Biotin-DVGSNKGAII-NH2
Excerpt: as §3, §4

[8] = biological target: T5, C-terminally biotinylated peptide representing 24-35 of the β-amyloid sequence; assay: SPR Biacore 3000, biotinylated peptide on streptavidin chip, 6F6 at 8-64 nM
T5 construct: Captured on a streptavidin sensorchip; also called peptide 24-35
T5 peptide: VGSNKGAIIGLMGSG-biotin
Experimental: (§5) Purified 6F6 monoclonal antibody was injected for 3 min at 8-64 nM over C-terminally biotinylated peptides representing 24-35 (SEQ ID No:10: […]), 28-39 (SEQ ID No:11: […]) and 31-42 (SEQ ID No:12: […]) of the β-amyloid sequence captured by a streptavidin coated sensorchip. The experiment was performed using a Biacore 3000 instrument. […] It may also indicate that residues 31-35 are not sufficient for binding 6F6 and residues above position 35 appear not to be involved in binding this antibody.

[9] = biological target: T6, C-terminally biotinylated peptide representing 28-39 of the β-amyloid sequence; assay: as above
T6 construct: Captured on a streptavidin sensorchip; also called peptide 28-39
T6 peptide: KGAIIGLMVGGVGSG-biotin
Experimental: as §5

[10] = biological target: T7, N-terminal coupled CGGGEDVGSNKGAIIGLMVGG (22-38) ovalbumin conjugate (coupled by the N-terminus to ovalbumin); assay: FMAT bead immunoassay, culture supernatant
T7 peptide: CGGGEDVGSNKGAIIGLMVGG
Excerpt: (§6) Each of the expressed antibodies contained in culture supernatant was then screened in an FMAT (Fluorescent Microvolume Assay Technology) homogenous immunoassay. 29 positive antibodies were identified from this screening cascade that were negative for ovalbumin protein passively absorbed to polystyrene beads but positive for: [0158] (i) N-terminal coupled […] (22-38) (SEQ ID No:73) ovalbumin conjugate bound to polystyrene beads, [0159] (ii) N-terminal biotinylated β-amyloid(1-40) peptide bound to streptavidin coated polystyrene beads, [0160] (iii) C-terminal biotinylated β-amyloid(1-40) peptide bound to streptavidin coated polystyrene beads and [0161] (iv) N-terminal biotinylated β-amyloid (24-34) peptide, residues 24-34 of β-amyloid being […] (SEQ ID No:8), bound to streptavidin coated polystyrene beads.

[11] = biological target: T8, ovalbumin protein (UniProt P01012 2-386); assay: FMAT bead immunoassay, culture supernatant
T8 sequence (looked up): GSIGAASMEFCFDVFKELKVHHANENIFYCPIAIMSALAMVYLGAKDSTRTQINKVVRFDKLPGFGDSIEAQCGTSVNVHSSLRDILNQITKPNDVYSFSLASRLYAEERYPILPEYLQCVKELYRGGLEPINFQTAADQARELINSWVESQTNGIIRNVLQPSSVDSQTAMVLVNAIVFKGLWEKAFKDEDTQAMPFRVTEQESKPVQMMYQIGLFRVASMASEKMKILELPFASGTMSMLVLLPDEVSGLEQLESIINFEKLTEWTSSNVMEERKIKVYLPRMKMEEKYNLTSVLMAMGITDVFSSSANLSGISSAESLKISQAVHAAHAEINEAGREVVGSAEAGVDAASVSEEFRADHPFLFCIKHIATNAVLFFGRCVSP
Excerpt: as §6

[12] = biological target: T9, N-terminal biotinylated β-amyloid (24-34) peptide; assay: FMAT bead immunoassay, culture supernatant
T9 peptide: Biotin-VGSNKGAIIGL
Excerpt: as §6

[13] = biological target: T2, human β-amyloid 1-40; assay: SPR Biacore 3000; mAb captured on anti-mouse IgG; triplicate run
Experimental: (§7) Purified mouse antibody preparations were captured on a polyclonal anti-mouse IgG antibody chip surface. Freshly prepared human β-amyloid 1-40 was diluted down in HBS-EP buffer and passed over the captured antibody surface at concentrations ranging from 4-500 nM for 5 minutes. […] Regeneration was achieved via a pulse of 100 mM H₃PO₄. […] All runs were double referenced against a blank surface and blank buffer injections.

[14] = biological target: T2, human β-amyloid 1-40; assay: SPR Biacore 3000; mAb captured on anti-mouse IgG, Aβ 1-40 at 4-500 nM
Experimental: as §7

[15] = biological target: T10, C-terminally biotinylated peptide representing 31-42 of the β-amyloid sequence; assay: SPR Biacore 3000, biotinylated peptide on streptavidin chip
T10 construct: Captured on a streptavidin sensorchip; also called peptide 31-42
T10 peptide: IIGLMVGGVVIAGSG-biotin
Experimental: as §5

[16] = biological target: T11, mouse β-amyloid (1-42) (mouse, UniProt P12023 672-713); assay: SPR Biacore, same method as Table 2
T11 construct: domain: β-amyloid (1-42)
T11 peptide (looked up): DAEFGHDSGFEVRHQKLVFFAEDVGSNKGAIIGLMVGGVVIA
Experimental: as §7
(§8) The same Biacore method was also used to investigate binding of 6F6 to human and mouse β-amyloid (1-40) and β-amyloid (1-42). 6F6 bound to all of these peptides with similar values.

[17] = biological target: T12, mouse β-amyloid (1-40) (mouse, UniProt P12023 672-711); assay: SPR Biacore, same method as Table 2
T12 construct: domain: β-amyloid (1-40)
T12 peptide (looked up): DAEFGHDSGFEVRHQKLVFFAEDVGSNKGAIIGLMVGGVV
Experimental: as §7, §8

IC50 [1]: 0.588 µg/mL
Kd [2]: 2.47 nM and 2.46 nM
Kd [3]: 2.89 nM and 3.11 nM
IC50 [4]: 0.518 µg/mL
Kd [5]: 4.91 nM
binding result [6]: no binding (tested: 30 ug/ml)
binding result [7]: no binding (tested: 30 ug/ml)
B1: humanised antibody H11L9 (antibody, human IgG1, kappa)
heavy: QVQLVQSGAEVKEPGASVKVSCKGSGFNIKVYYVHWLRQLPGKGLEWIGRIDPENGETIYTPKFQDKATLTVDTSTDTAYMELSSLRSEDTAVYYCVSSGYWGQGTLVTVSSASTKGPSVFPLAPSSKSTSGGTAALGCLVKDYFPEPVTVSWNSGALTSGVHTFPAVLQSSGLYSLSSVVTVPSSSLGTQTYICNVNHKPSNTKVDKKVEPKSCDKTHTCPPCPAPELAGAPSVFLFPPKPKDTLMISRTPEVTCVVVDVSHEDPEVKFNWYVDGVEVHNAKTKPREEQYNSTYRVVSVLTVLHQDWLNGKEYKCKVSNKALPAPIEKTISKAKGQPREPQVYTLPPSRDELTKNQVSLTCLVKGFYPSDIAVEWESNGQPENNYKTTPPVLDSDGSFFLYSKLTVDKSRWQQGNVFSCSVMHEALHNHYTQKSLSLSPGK
light: DIVMTQSPLSNPVTPGEPASISCRSSKSLLHRNGITYLYWYLQKPGQSPQLLIYQMSNLASGVPDRFSSSGSGTDFTLKISRVEAEDVGVYYCAQNLELWTFGQGTKVEIKRTVAAPSVFIFPPSDEQLKSGTASVVCLLNNFYPREAKVQWKVDNALQSGNSQESVTEQDSKDSTYSLSSTLTLSKADYEKHKVYACEVTHQGLSSPVTKSFNRGEC
notes: Human IgG1 Fc mutated heavy chain, human kappa; also called H11L9(sup); H11L9(pur)

binding result [8]: binds
binding result [9]: binds
binding result [10]: binds
binding result [11]: no binding
binding result [12]: binds
Kd [13]: 1.02 nM
koff [13]: 9.4e-05 s⁻¹
kon [13]: 99300 M⁻¹ s⁻¹
Kd [14]: 0.62 nM
koff [14]: 6.57e-05 s⁻¹
kon [14]: 106000 M⁻¹ s⁻¹
binding result [15]: no binding (tested: 8-64 nM)
binding result [16]: binds
binding result [17]: binds
B2: 6F6 murine monoclonal antibody (antibody, mouse IgG2a, V domains shown)
VH: EVQLQQSGAELVEPGASVKLSCTGSGFNIKVYYVHWLKQLTEQGLEWIGRIDPENGETIYTPKFQDKATLTVDTSSNTAYLQLSSLTSEDAAVYYCVSSGYWGQGTTLTVSS
VL: DIVMTQSAFSNPVTLGTSASISCRSSKSLLHRNGITYLYWYLQKPGQPPQLLIYQMSNLASGVPDRFTSSGSGTDFTLKISRVEAEDVGVYYCAQNLELWTFGGGTKLEIK
notes: also called 6F6 parental monoclonal antibody; mouse 6F6 monoclonal antibody

IC50 [1]: 0.566 µg/mL
Kd [2]: 1 nM
IC50 [4]: 0.451 µg/mL
Kd [5]: 3.74 nM
B3: chimeric 6F6 antibody (6F6c) (antibody, human IgG1, V domains shown)
VH: EVQLQQSGAELVEPGASVKLSCTGSGFNIKVYYVHWLKQLTEQGLEWIGRIDPENGETIYTPKFQDKATLTVDTSSNTAYLQLSSLTSEDAAVYYCVSSGYWGQGTLVTVSS
VL: DIVMTQSAFSNPVTLGTSASISCRSSKSLLHRNGITYLYWYLQKPGQPPQLLIYQMSNLASGVPDRFTSSGSGTDFTLKISRVEAEDVGVYYCAQNLELWTFGGGTKLEIK
notes: Murine V regions on human IgG1 (Fc disabled) and human C kappa; also called 6F6 Chimera (pur); chimeric molecule of 6F6
